Measurements from patent US20230181748A1 (VIB VZW, published 2023).

Biological target: preformed, sonicated Aβ aggregates (UniProt P05067 672-713)
Test: cell-based or functional assay

Chain of preformed, sonicated Aβ aggregates (P05067 672-713): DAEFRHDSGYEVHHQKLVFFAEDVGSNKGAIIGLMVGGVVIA

## KLWFFAGSGAPIGL [AbCap_25]
  aggregation seeding capacity of Aβ in Aβ biosensor cells (IC50): 1420 nM
